# Measurements reported in US8957190B2, “Use of heat-resistant biotin-binding protein, and solid support having the protein attached thereto” (Japan Tobacco Inc., priority 2006, dated 2015).
# Legend:
# [1] = Kinetic analysis of tamavidin 2-biotin interaction using a Biacore 3000 biosensor (surface plasmon resonance); assay type: binding; conditions: Biacore 3000, 25° C.
# Procedure: Kinetic Analysis of Tamavidin 2 (TM2)-Biotin Interaction Using a Biacore Biosensor
# Highly-purified BSA (2 mg, Sigma) and NHS-biotin (1 mg, Pierce) were dissolved in 1 ml of 50 mM sodium borate pH 8.0 and incubated at 4° C. for 2 hours. The NHS-biotin (EZ-Link NHS-LC-LC-Biotin) had been dissolved in a small volume of DMSO before addition. This solution was introduced into a dialysis tube (MWCO 6-8,000) and dialyzed overnight at 4° C. against 50 mM sodium carbonate pH 6.7. The biotin-BSA conjugate thus prepared (MW 67 kDa, 30 μM) was used as a ligand (a substance immobilized on a sensor chip) for a Biacore® biosensor. On the other hand, recombinant tamavidin 2 was prepared as an analyte (a substance flowing through channels) and analyzed for intermolecular interactions using a Biacore® 3000 (a biosensor designed on the principle of surface plasmon resonance, Biacore Inc.). Biotin-BSA and BSA alone (serving as a negative control) were each immobilized on CM5 sensor chips by amine coupling techniques. Their immobilized amount was adjusted to around 200 RU. BSA-immobilized chips were placed in flow cells 1 and 3, while biotin-BSA-immobilized chips were placed in flow cells 2 and 4. Tamavidin 2 was loaded into flow cells 1 and 2, while streptavidin was loaded into flow cells 3 and 4, each being loaded at a flow rate of 20 μl/min for 2 minutes in running buffer [10 mM HEPES pH 7.4, 150 mM NaCl, 3 mM EDTA, 0.005% Surfactant 20 (Biacore Inc.)]. The samples were then monitored for their dissociation over 60 minutes. […] The dissociation constant (Kd) was determined from kd/ka.
# It should be noted that when the regeneration step was skipped, Rmax (the maximum binding amount of an analyte) was reduced ever time the measurement at each concentration was made. For this reason, Rmax was calculated by local fitting for each concentration during analysis. […]
# [2] = Activity measurement by means of fluorescent biotin (method of Kada et al.); assay type: binding; conditions: room temperature
# Procedure: By means of fluorescent biotin, tamavidin 2 was measured for its biotin-binding activity according to the method of Kada et al. (Biochim. Biophys. Acta., 1427: 44-48, (1999)). Solutions were prepared to contain the purified TM2 at stepwise concentrations from 0 pmol to 486 pmol in 200 μl assay buffer (50 mM NaH2PO4, 100 mM NaCl, 1 mM EDTA (pH 7.5)). These solutions were each mixed with 50 μL (1 nmol) of a 20 pmol/μL fluorescent biotin solution (biotin-4-fluorescein; Molecular Probe) and allowed to stand at room temperature for 10 minutes, followed by measuring the fluorescence intensity with a Las-3000 system (FUJIFILM). As a result, 0.274 nmol of TM2 was bound to nmol of fluorescent biotin. Namely, 3.6 mol of fluorescent biotin was bound to 1 mol of tamavidin. […] In the case of streptavidin, 3.4 mol of fluorescent biotin was bound per mol of streptavidin.
# salmon sperm DNA = assay: Test for non-specific binding to DNA (slot blot, antibody detection); conditions: 25 μg/mL protein, salmon sperm DNA 10 μg to 0.3 μg on membrane
# Procedure: TM2 was analyzed for its non-specific binding to DNA. Serial dilutions of salmon sperm DNA (10 μg to 0.3 μg) in 2×SSC buffer were alkali-denatured and adsorbed onto a Hybond N+ membrane (Amersham Biosciences) using Bio-Dot SF (BIO-RAD). The membrane was blocked with 5×Denhardt's solution (0.1% BSA, 0.1% Ficoll, 0, 1% polyvinylpyrrolidone) and then immersed in a 25 μg/mL TM2, streptavidin or avidin solution at room temperature for 90 minutes. The membrane was then washed three times with TTBS buffer (TBS buffer containing 0.05% Tween 20) at room temperature for 5 minutes. The membrane was blocked with TBS buffer containing 0.5% skimmed milk and 0.01% Tween 20 for 1 hour. The primary antibodies used were rabbit anti-TM2 antibody (purified as described above) for TM2, rabbit anti-streptavidin antibody (SIGMA) for streptavidin, and rabbit anti-avidin antibody (Abcam) for avidin, which were diluted to give the same antibody titer before use. Antigen-antibody reaction with each primary antibody was performed overnight at room temperature. […] The membrane was washed three times with TTBS buffer at room temperature for 5 minutes, and then developed with an Alkaline Phosphatase substrate kit II, vector Black (Funakoshi Co., Ltd., Japan), followed by quantification with a Las-3000 system (FUJIFILM).
# [3] = Heat resistance: protein stability (heating, SDS-PAGE band quantification); assay type: physicochemical; conditions: for tetramer dissociation upon addition of biotin: biotin added, after treatment at 95° C.; for heat resistance higher than that of streptavidin: difference of 50% band-intensity temperatures; for temperature which caused a 50% reduction in protein band intensity: heated 20 minutes, soluble protein, SDS-PAGE, no biotin; for heat resistance higher than in streptavidin (summary statement): summary in disclosure
# Procedure: (§1) 0.2 μg/μL TM2 and 0.2 μg/μL streptavidin were heated in 10 μL (2 μg) volumes at room temperature, 50° C., 60° C., 70° C., 80° C., 90° C. or 99° C. for 20 minutes, followed by centrifugation at 15000 rpm for 10 minutes. Each supernatant (soluble protein) was suspended in an equal volume of 2×SDS sample buffer (100 mM Tris-HCl pH 6.8, 12% 2-mercaptoethanol, 2% SDS, 20% glycerol), heated at 95° C. for 10 minutes and then analyzed by SDS-PAGE. Protein bands were detected by CBB staining. Using a Las-3000 system (FUJIFILM), a calibration curve was prepared based on quantification markers (LMW ELECTROPHORESIS CALIBRATION KIT; Pharmacia Biotech) and used to quantify the protein bands. The temperature which caused a 50% reduction in protein band intensity was 71° C. for streptavidin, whereas it was 87° C. for tamavidin 2.
# as §1, with “Purified tamavidin 1 at a concentration of 0.2” for “0.2”, “was” for “TM2 and 0.2 μg/μL streptavidin were”, “As a result, the” for “The”, “76°” for “71° C. for streptavidin, whereas it was 87°”, “1.” for “2.”
# [4] = Heat resistance: fluorescent biotin-binding activity of heated biotin-binding proteins
# Procedure: Based on the property of fluorescent biotin to lose its fluorescence intensity when bound to a biotin-binding site in a biotin-binding protein, tamavidin 2 was compared with streptavidin and avidin for biotin-binding capacity under high temperature conditions.
# About 0.25 μg/μL TM2 and streptavidin were heated at room temperature, 50° C., 60° C., 70° C., 80° C. or 90° C. for 20 minutes. Solutions were prepared to contain the heat-treated TM2 or streptavidin at stepwise concentrations from 0 μL to 27 μL in 150 μL assay buffer (50 mM NaH2PO4, 100 mM NaCl, 1 mM EDTA (pH 7.5)). These solutions were each mixed with 50 μL (250 pmol) of a 5 pmol/μL fluorescent biotin solution (biotin-4-fluorescein; Molecular Probe) and allowed to stand at room temperature for 20 minutes, followed by measuring the fluorescence intensity with a Las-3000 system (FUJIFILM).
# Heat resistance test on the biotin-binding proteins was accomplished as follows. About 0.25 μg/μL biotin-binding protein was heated at room temperature, 50° C., 60° C., 70° C., 80° C. or 90° C. for 20 minutes. Solutions were prepared to contain the heated biotin-binding protein at stepwise concentrations from 0 μL to 12 μL in 150 μL assay buffer. These solutions were each mixed with 50 μL (100 pmol) of a 2 pmol/μL fluorescent biotin solution and allowed to stand at room temperature for 20 minutes, followed by measuring the fluorescence intensity at Ex=460 nm and Em=525 nm with an Infinite M200 (TECAN).
# [5] = Fluorescent biotin-binding activity of tamavidin 1 after heat treatment at 70° C.; conditions: supernatant treated at 70° C. for 10 minutes, incubation at room temperature
# Procedure: Fluorescent biotin-binding activity was measured for tamavidin 1 in the above centrifuged supernatant after heat treatment at 70° C. The same procedure as used for tamavidin 2 was repeated for this purpose. Incubation with fluorescent biotin was performed at room temperature.
# [6] = 1:1 binding model, biotin-BSA ligand
Molecule,"Association rate constant ks [1, 6]","Dissociation rate constant kd [1, 6]","Kd ([1]; determined from kd/ka, read-out: Dissociation constant Kd)",amount of TM2 bound to nmol of fluorescent biotin ([2]; 1 nmol fluorescent biotin added),fluorescent biotin bound per mol of protein ([2]; 10 minutes),non-specific binding to DNA (staining intensity versus DNA concentration) (salmon sperm DNA),tetramer dissociation upon addition of biotin [3],heat resistance higher than that of streptavidin [3],temperature which caused a 50% reduction in protein band intensity [3],heat resistance higher than in streptavidin (summary statement) [3],"temperature which caused a 50% reduction in fluorescence intensity decrement compared to the unheated sample ([4]; free protein, heated 20 minutes)","change in binding to fluorescent biotin compared to the room temperature value ([4]; heated at 70° C. or below, 20 minutes)","retained fluorescent biotin-binding activity ([4]; heated at 80° C., 20 minutes)",binding to fluorescent biotin after heat treatment [5]
"Tamavidin 2: biotin-binding protein (SEQ ID NO: 4) from Pleurotus cornucopiae var. citrinopileatus, recombinant from E. coli, tetramer (protein, listed as Pleurotus cornucopiae, tetramer) MSDVQSSLTGTWYNELNSKMELTANKDGTLTGKYLSKVGDVYVPYPLSGRYNLQPPAGQGVALGWAVSWENSKIHSATTWSGQFFSESSPVILTQWLLSSSTARGDVWESTLVGNDSFTKTAPTEQQIAHAQLHCRAPRLK",919000 M⁻¹ s⁻¹,6.83e-06 s⁻¹,7.43 pM,0.274 nmol,3.6 mol,not strongly affected by DNA concentration,tetramer dissociation was not observed,≥ 15 °C,87 °C,≥ 10 °C,85 °C,no change,82%,
"Tamavidin 1: biotin-binding protein (SEQ ID NO: 2) purified from the edible mushroom Pleurotus cornucopiae var. citrinopileatus; recombinant from E. coli (protein, listed as Pleurotus cornucopiae) MKDVQSLLTGTWYNELGSTMNLTANKDGSLTGTYHSNVGEVPPTYHLSGRYNLQPPSGQGVTLGWAVSFENTSANVHSVSTWSGQYFSEPAEVILTQWLLSRSSEREDLWQSTHVGHDEFSKTKPTKEKIAQAQLLRRGLKFE",,,,,,,tetramer dissociation was not observed,5 °C,76 °C,5 °C,,,,found to bind to fluorescent biotin
